Results taken from paper PMC9138599, “Clade-Specific Alterations within the HIV-1 Capsid Protein with Implications for Nuclear Translocation” (Biomolecules, 2022).
Values joined by “and” are separate entries in the source; they are usually repeats but may differ in a detail not shown here. Equal entries are not always repeated.

Assays:
[1] = biological target: NUP-153 RRR patch (Homo sapiens) (UniProt P49790); details: cited from earlier work
[2] = biological target: HIV-1 CA hexamer from clade A1 (isolate 92UG037.1) (HIV-1 isolate 92UG037.1 (clade A1)); assay: cross-linking
[3] = biological target: HIV-1 CA hexamer from clade A2 (isolate CDKTB48) (HIV-1 isolate CDKTB48 (clade A2)); assay: cross-linking
[4] = biological target: HIV-1 CA hexamer from clade B (isolate NL4-3) (HIV-1 isolate NL4-3 (clade B)); assay: cross-linking
[5] = biological target: HIV-1 CA hexamer from clade C (isolate 92BR025.8) (HIV-1 isolate 92BR025.8 (clade C)); assay: cross-linking
[6] = biological target: HIV-1 CA hexamer from clade D (isolate 94UG114.1) (HIV-1 isolate 94UG114.1 (clade D)); assay: cross-linking
[7] = biological target: HIV-1 CA hexamer from clade A2 (isolate CDKTB48) (HIV-1 isolate CDKTB48 (clade A2)); assay: SPR; CA hexamer amine-coupled to a ProteOn GLH chip, peptide injected as analyte; 25 °C; 1x PBS pH 7.4, 3% DMSO, 0.005% polysorbate 20; reference surface IgG b12; 1:1 binding model; KD from a Langmuir isotherm equilibrium fit and from a global kinetic fit; triplicate
[8] = biological target: HIV-1 CA hexamer from clade C (isolate 92BR025.8) (HIV-1 isolate 92BR025.8 (clade C)); assay: as above
[9] = biological target: HIV-1 CA hexamer from clade D (isolate 94UG114.1) (HIV-1 isolate 94UG114.1 (clade D)); assay: as above

In the case of CA (from UniProt O93215), the Kd [1] is listed as 0.8 µM.
“HIV-1 CA hexamer from clade A1 (isolate 92UG037.1) (natural protein)” gave a stoichiometry N [2] of 6.
“HIV-1 CA hexamer from clade A2 (isolate CDKTB48) (natural protein)” showed a stoichiometry N [3] of 6.
“HIV-1 CA hexamer from clade B (isolate NL4-3) (natural protein)” showed a stoichiometry N [4] of 6.
“HIV-1 CA hexamer from clade C (isolate 92BR025.8) (natural protein)” gave a stoichiometry N [5] of 6.
“HIV-1 CA hexamer from clade D (isolate 94UG114.1) (natural protein)” showed a stoichiometry N [6] of 6.
For NUP-153 peptide (1407-…-1423), the Kd [7] was 443 µM and 746 µM, the Kd [8] was 503 µM and 881 µM and the Kd [9] was 309 µM and 368 µM.
